In the nanobody polyreactivity screen of Harvey et al. (2022):

Experiment: yeast display, Sf9 membrane polyspecificity reagent, FACS + sequencing; frameworks hold sequencing errors
Procedure, shortened: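 In a synthetic yeast display library (Saccharomyces cerevisiae BJ5465), nanobody expression was induced with galactose for 36–48 hours. FACS gates were set low and high (top ~1%) using anti-HA fluorescence for expression and streptavidin fluorescence for binding of the Sf9 membrane reagent. Each polyreactivity label is drawn from the gate of origin.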

| Sequence | polyreactivity (PSR sort gate) |
| --- | --- |
| QVQLVESGGGLVQAGGSLRLSCAASGITFTYYAMGWYRQAPGKERELVAGISRGGSTYYADSVKGRFTISRDNAKNTVYLQMNSLKPEDTAVYYCAATSYRRTGYNYWGQGTQVTVSS | high polyreactivity |
| QVQLVESGGGLVQAGGSLRLSCAASGNTFGRYAMGWYRQAPGKERELVAAITKRGGTTYYADSVKGRFTISRDNAKNTVYLKMNSLKPEDTAVYYCAAKRSVLRTADYDYWGQGTQVTVSS | high polyreactivity |
| QVQLVESGGGLVQAGGSLRLSCAASGFTFRKYAMGWYRPAPGKERELVAAITANGGRTYYADSVKGRFTISRDNAKNTVYLQMNSLKPEDTAVYYCARDWGKSEYDYWGQGTQVTVSS | high polyreactivity |
| QVHLVESGGGLVQAGGSLRLSCAASGRTFYRNAMGWYRQAPGKERELVAAIRTRTGSTYYADSVKGRFTISRDNAKNTVYLQMNSLKPEDTAGYYCAALAWYPYYASWPVESDYWGQGTQVTVSS | high polyreactivity |
| QVQLVESGGGLVQAGGSLRLSCAASGRTFAYTDMGWYRQAPGNERELVAAISWSDGTTYYADSVKGRFTISRDNAKNTVYLQMNSLKPEDTAVYYCAAESYPSEVASYVSEYDYWGQGTQVTVSA | low polyreactivity |
| QVQLVESGGGLVQAGGSLRLSCAASGSISYDYAMGWYRQAPGKERELVASITSRGGSTYADSVKGRFTISRDNAKNTVYLQMNSLKPEDTAVYYCAADAIPNLIFISLPFGLDYWGQGTQVTVSS | low polyreactivity |
| QVQLVESGGGLVQAGGSLRLSCAASGYNFDDNAMGWYRQAPGKERELVATNYADSVKGRFTISRDNAKNTVYLQMKSLKPEDTAVYYCAKDVWQTYTDLDHWGQGTQVTVSS | low polyreactivity |
| QVQLVESGGGLVQAGGSLRLSCAASGSIFQFNGMGWYRQAPGKERELVASINWSGGSTNYADSVMGRFTISRDNAKNTVYLQMNSLKAEDTAVYYCAVGHRIYRSRYNYWGQGTQVTVSS | low polyreactivity |
| QVQLVESGGGLVHAGGSLRLSCAASGSFFRSYAMGWYRQAPGKEMEWVATISSSTGSTYYADSVKGRFTISRDNAKNTVYLQMNSLKPEDTSVYYCAAVQPVKSCSGYHFWYYWGQGTQVTVSS | high polyreactivity |
| QVQLVESGGGLVQAGGSLRLSCAGSGRIFTQYAMGWYGQAPGKERELVAAINASDGSTYADSVKGRFTISRDNAKNTVYLQMNSLKPEDTAVYYCNVTGGPYDFTRWSEFDHWGQGTQVTVSS | low polyreactivity |
| QVQLVESGGGLVKAGGSLRLSCAASGYNFIVYTMGWYRQAPGKERELVAAISSGGITDYADSVKGRFTISRDNAKNTDYLQMNSLNPEDTAVYYWGQGTQVTVSS | low polyreactivity |
| QVQLVESGGGLVQAGGSLRLSCAASGRTFHGYAMGWYRQAPGKERELVARINWSDGRTYYADSVKGRFTISRDNAKNTVYLQMNSLKPEEPAVYYCAATRYYYYWYVYEDRGDFWGQGTQVTVSS | low polyreactivity |
| QVQLVETGGGLVQAGGSLRLSCAASGRIFYYKAKGWYRQAPGKERELVASISWDASSTYYADSVKGRFTISRDNAKNTVYLQMNSLKPEDTAVYYCNIKHLYRQYDYWGQGTQVTVSS | low polyreactivity |
| QVQLVESGGGLVQAGGSLRLSCAASGSISYYNAMGWYRQAPGKERELVATITDSGGSTYYADSVKGRFTISRDNAKNTVYLQMNSLKPEDTAVYYCAVDYTEWYSIYDYWGQGTEVTVSS | low polyreactivity |
| QVQLVESGGGLVQAGGSLRLSCAASGSTFGPYTMGWYRQAPGKERELVATISSGGSTYYADSVKGRFTISRDNAKNTVYLQMNSLKPEDTAVYYCAARYWSIYDYWGQGTQVTVSS | low polyreactivity |
| QVQLEESGGGLVQAGGSLRLSCAASGSIFVTNAMGWYRQAPVKERELVAAISSGGNTNYADSVKGRFTISRDNAKNTVYLQMNSLKPEDTAVYYCAKDPDKVDYVDMDYWGQGTQVTVSS | low polyreactivity |
| QVQLVESGGGLVQAGGSLRLSCAASGFTFRWYAMGWYRQAPGKERELVARIRGSGGNTYYADSVKGRFTISRDNAKNTVYLQMNSLKPEDTAVYYCAAMQSPTRSFIYRFDYWGQGTQVTVSS | high polyreactivity |
| QVQLVESGGGLVQAGGSLRLSCAASGSIFGSYAMGWYRQAPGKERDLVAAISGSGGRTYYADSVKGRFTISRDNAKNTVYLQMNSLKPEDTAVYYCAAAYPRVTYKYGYYWGQGTQVTVSS | high polyreactivity |
| QVQLVESGGGLVQTGGTLRLSCAASGRSFNRNARAWYRLAPGKERELVAAISSRVGRTYYADSVKGRFTISRDNAKNSVYLKMNSLKQEETAVYYCNAVYSQSCYFYRFDYWGQGTQVNVSS | high polyreactivity |
| QDQHVESGGGLVQAGGSLRLSCAASGITIRTNAIGWYRQAPGKERELVAAITTNGGNTYYADSVKGRFTISRENAKNTVYLQMNSLKQEDTAVYYCNTATYVDSFPDPGDHWGQGTQVTVSS | low polyreactivity |
| QVQLVESGGGLVQAGGSLRLSCAASGSIFAVYAMGWYRQAPGKERELVASISRTGTTNYADSVKGRFTISRDNAKNTVYLQMYSLKPEDTAVYYCAARPGSWYPSVPSYNYWGQGTQVTVSS | low polyreactivity |
| QVQLVESGGGLVQAGGSLRLSCAASGSTFTYYAMGWYRQAPGKERELVAAIRNGGSTNYADSVKGRFTISRDNAKNTVYFQMNSLKPEDTAVSYCAADQYYYTQPCDMDYWGQGTQVTVSS | high polyreactivity |
| QVQLVESGGGLVQAGGSLRLSCADSGLTFYRYAMGWYRQAPGKERELVAAIRVSGNTYYADSVKGRFTISRDNAKNTVYLQMNSLKPEDTAVYYCAAKPYYFYGMDYWGQGTQVTVSS | high polyreactivity |
| QVQLVESGGGLVQAGGSLRISCAASGSTFYCYAMGWYRQAPGKERELVAAIRRNGDGTYYADSVKGRFTISRDNAKNTVYLQMNSLKPVDTAVYYCAARRFIPRFNYWGQGTQVTVSS | high polyreactivity |
| QVQLVESGGGLVQAGGSLRLSFAASGFTFGYYTMGWYRQAPGKERELVAAITSGGGTYYADSVKGRFTISRDNAKNTVYLQMNSLKPEDTAVYYCATTPVWYKVSRRYGYWGQGTQVTVSS | high polyreactivity |
| QVQLVQSGGGLVQAVGSLRLICADSGSIFVPNAMGWYRQALGKERELVAAITYSGVDTYYADSVKGRFTISRDNAKNSVYLQMNSLKPEDTAVYYCAADNGRVGYDYWGLGTQVTVSS | low polyreactivity |
| QVQLVESGGGLVQAGGSLRLSCAASGSIFEVNAMGWYRQAPGKERELVAAISFSGDSTYYADSVKGRFTISRDNAKNTVYLQMNSLKPEDTAVYYCAAEQYVAWIDYLYDYWGQGTQVTVSS | high polyreactivity |
| QVHLVESDGGLVQAGGSLRLSCAASGIIFGYYVMGWYRQAPGKERELVASITSGGSTNYADSVKGRYTISRDNAKNTVYLQMNSLIPEYTAVYYCATDEPVGRYKHNYYWGQGTKVTVSS | low polyreactivity |
| QVQLVESGGGLVQAGGSLRLSCAASRSTFPKYAMGWNRKAPGKERELVASISVTTGSPYYADSVKGRFTISLDNAKNTVYLQKNSLKPEDTAVYYCAKRTYSRKFRGAYNYWGQGTQVSVSS | high polyreactivity |
| QVQLVESGGGLVQAGGSLRLSCAASGSIFDGNAMGWYRQAPGKERELVAAITQSGCSTYYADSVKGRFTISRDNAKNTVYFQMNSLKPEDNAVYYCAADVPGVYPYDYWGQGTQVTVSS | low polyreactivity |
